Experimental findings from the supplement of paper PMC12042874 are described below.

This data set in a line: amyloid nucleation score (Sup35N fusion, yeast selection) (log enrichment); library NNK1; higher = more nucleation; inactive = no reads after selection. Put shortly: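 Yeast lacking psi expressed peptides of 20 random codons fused to Sup35N, received 100 μM copper sulfate for 24 hours, and were then grown for 7 days at 30°C on medium lacking adenine and uracil. Illumina sequencing of input and output plasmid inserts provided the reads. Nucleation scores are DiMSum log enrichments of output over input, centred on the mode of non-aggregating sequences. Any sequence with under 100 input reads was excluded.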

± gives the uncertainty stated by the source.

With WYAFERFDFHLCVDVVQLTR, the amyloid nucleation score worked out at 1.11 ± 0.94. Substance RDSINLLDFGIVITGAKKWS came in with an amyloid nucleation score of 0.218 ± 0.27. SWNNNAFAGMIPSNVVCCTY: the amyloid nucleation score was 1.97 ± 0.26. As for AMQYYIHQLVVDLSGLM, the figure is 6.57 ± 0.077; as for PDSTVARVDVSPELIFCLKS, -0.708 ± 0.6; as for KGANADAYGRGYNAVFMLEW, -1.39 ± 1.2. As to NSPPSDHSLKV, the amyloid nucleation score is -0.195 ± 1.4. For the substance VGNNKLFKTPMKDRELMICL, the amyloid nucleation score is -0.184 ± 0.48. For CSLKKSMQNYEFHFWFLFIV the value was -0.757 ± 0.62. Turning to IISGIIIRYIDYNYRD, the amyloid nucleation score result was “inactive”. As for RFVLWYYDY, the figure is 3.12 ± 0.076; as for LDRFVYY, 1.41 ± 0.69; as for TLDADYPCNEQDTVWL, 1.01 ± 1.1. As for DLLQLYSDGTRGYVFFLLMK, the entry is “inactive”.

The substance SVNFRYPWCFTVGGMTVLLQ registered an amyloid nucleation score of 0.007 ± 0.73. With CGLKNFGVLSFRSIDCQRKG, the amyloid nucleation score was -1.48 ± 1.1. For the substance SSDEFVDGSLIWYHLFSPCR, the amyloid nucleation score was -0.744 ± 0.41. As for TCIDVQQYDCLVFFYFLHGF, the entry is “inactive”. As for YMRGGQDFYYVQDIVVFLLL, the amyloid nucleation score was determined as 4.24 ± 0.094. With NCSGVFKGKSLTSCGT, the amyloid nucleation score is -0.038 ± 0.21. For DIPVSHGAYL, the amyloid nucleation score is -0.378 ± 0.84. For SNTRFSCRSPWVCTFFVREV the value was 0.085 ± 0.52. In the case of QGLGALMVRSFSFYLFVW, the amyloid nucleation score was -0.241 ± 1.4. As for GPRDFGDAWCYTSNNVKSCS, the figure is 0.216 ± 0.48; as for RMGNLEKCKEPGVVNRWLGI, -0.507 ± 0.52. Turning to GTTLDYWRVMEMSGDFTSFC, the amyloid nucleation score is -0.073 ± 0.68.

As to ASMWSWRYHMEAINSTKAEA, the amyloid nucleation score was -0.745 ± 2.4.

In turn, CTLKWLTF showed an amyloid nucleation score of 1.34 ± 0.43.

As for GFSLDRFSDHVLMGNSD, the amyloid nucleation score was -0.585 ± 0.23.

As for YCLCCHLLKT, the amyloid nucleation score result is “inactive”. For LCFVRMRYLFESDCPRHRKH the value was 0.384 ± 0.65; for VRLSFPKRLSISSAVCNRGS, 0.279 ± 0.62. Turning to IILIDMVCPPCRPRFRSYSC, the amyloid nucleation score is -0.153 ± 0.69. For the substance SSRLVSFFGHSNTVLRMFNW, the amyloid nucleation score result is “inactive”.

Regarding CLNGMQPHKWFGMCVWVCPC, the amyloid nucleation score is -0.212 ± 0.58. For the substance TKDGIT, the amyloid nucleation score worked out at 0.305 ± 0.97.

In turn, ARGTGGSKAAPNYLVYTGCR yielded an amyloid nucleation score of 0.684 ± 0.48. Substance TVFIKLKVFAMN registered an amyloid nucleation score of 1.53 ± 0.18.

As to LFESGSRDFLRQKLTFGTVP, the amyloid nucleation score was 0.066 ± 0.7. As for FSFDLLSVESGITNV, the figure is -0.054 ± 0.82.

As for MGGVMAVLFRIMLGVIF, the amyloid nucleation score entry is “inactive”.

As for FRNLTVGAWRPMPGERMPIG, the amyloid nucleation score is -0.182 ± 0.42. For IYRSVANSMKVSEYQIPLDS the value was -0.18 ± 0.54.

Take YLIWLLGFANILYHYTL: the amyloid nucleation score result was “inactive”. As for ISLYVSNYRAYDKSPLGEDW, the figure is 0.398 ± 0.74. For VLKCFSLEVVTWDSACLAGL the value was 0.252 ± 1.1; for FTSFFVSV, -1.91 ± 1.9. As for MGVFRLNHSQTLRTGQSVEF, the figure is -1.18 ± 2.1; as for IHVSFKDYLTVSTIMMWTIV, -0.077 ± 0.66. TGGFIFHGCAFYRMFSWLVD yielded an amyloid nucleation score of 0.849 ± 1.1. As for DEWSNKHCSQNTALCSLWAT, the figure is 1.43 ± 0.2; as for CRYTITFLVQKYLLDFFA, -0.074 ± 0.35. On to KLDVSLKKYLD, for which the amyloid nucleation score is 0.368 ± 0.31. For MVVQRLF the value was -0.54 ± 0.78; for KLLIP, -1.17 ± 0.58; for QCSMGGRYVRQDS, -0.197 ± 0.6. As for YTEIMGL, the figure is -0.046 ± 0.31. As for MQMSLTDSGGVYVDGLVGYL, the figure is -0.239 ± 0.31. As for LITYLRLFYRITVRTG, the amyloid nucleation score came to 0.48 ± 0.4. As for PYKGIVMFVSGPP, the figure is -0.068 ± 0.54; as for RTMLMLMTSVLGGQGK, 7.02 ± 0.079.

Consider VRCNC, for which the amyloid nucleation score was 0.261 ± 0.5.

On to GLSGPRRQMSYMGWQRVRF, for which the amyloid nucleation score was -0.247 ± 1.1. As for ANADDMLRFRGDF, the figure is 0.243 ± 0.44; as for CTWYLLVSSSRLLTDSFLPS, 1.32 ± 0.6; as for NSSCIIPMLWWGHNHHWC, 3.43 ± 0.12.

For MGEYSRLSARSGWLDTPVDG, the amyloid nucleation score is -0.496 ± 0.67. For LFSLNTLCM the value was 0.985 ± 0.51; for EDDLN, 0.271 ± 0.38; for SLSMSRIQMHNRYKPGTQFD, 1.07 ± 0.46. Regarding SGCRYSAIVGSPMRCNMYRS, the amyloid nucleation score is -0.756 ± 2.4. Regarding VAFLTKNCYEFDDTVRTCAV, the amyloid nucleation score was -0.569 ± 0.42. YYTNWQEGYRVGRFRCDGHN: the amyloid nucleation score result was “inactive”. FKSYCVGLHDYGP displayed an amyloid nucleation score of 0.242 ± 0.99.

Take SGCCVASFYHRDSILSCEKA: the amyloid nucleation score was 0.446 ± 0.58. For YALKLSMDVGLYLLFEGDRD the value was -1.36 ± 1.9. Take YVGSDLFYRCQKNKYHRHSL: the amyloid nucleation score is -0.215 ± 0.97. For GSNLVQKRRCYSWMSLYLSS, the amyloid nucleation score came to 0.333 ± 0.26. In the case of NESDI, the amyloid nucleation score amounted to 0.392 ± 0.26. For the substance YVVCKGIRSSSWDSWVSKR, the amyloid nucleation score was -0.393 ± 0.28. Consider LNGTLSCNAISFFIMFA, for which the amyloid nucleation score was 0.846 ± 0.44. As for FIASIG, the figure is 0.274 ± 0.79; as for FDRSWRGFAGPRQRTGLVVF, -0.178 ± 0.51; as for LRCVLQSRRWEIGMLRLTER, -0.267 ± 0.35. Substance SYQVRDVIKSF displayed an amyloid nucleation score of 4.52 ± 0.1. In the case of VSVNTVFH, the amyloid nucleation score came to 0.36 ± 0.44.

For TLLRLFEKPLICYVIGRSLI, the amyloid nucleation score is -1.09 ± 0.61. As for LILFLASV, the figure is 1.35 ± 0.27; as for RDVECQLVSMHKGMWKLVEE, -0.041 ± 0.28. In turn, QTGAAFMVAASRGKKTGVLR came in with an amyloid nucleation score of 0.327 ± 0.28. As for WHFSMFREWRSS, the figure is -0.649 ± 0.73. As for LNNLVFVLLV, the figure is 3.37 ± 0.09; as for MDGFERWGSYVTWSQLVMIR, -0.837 ± 0.98; as for RMMLHRGLYYNVMLNYSLI, 0.86 ± 0.47. As for HHAGPSG, the figure is 0.72 ± 0.46. SLNREYVYKRGGVREWCRYL displayed an amyloid nucleation score of 0.856 ± 0.59.

Take DVSLNVNLYVHRFMCHQVPI: the amyloid nucleation score came to 0.515 ± 0.28. For the substance GILYQV, the amyloid nucleation score is -0.403 ± 0.29. For EVTDVRLS the value was 0.862 ± 0.62; for FKCLARFWYADYLRFVFARQ, 0.297 ± 0.32; for TCISTCYD, -0.183 ± 0.9. As for MTYDGCNSCKHLKSGKLRWC, the figure is 0.117 ± 0.29. For LLNGEQLQSSDNIRLWIAFR the value was 0.151 ± 0.41; for IYGTGFIWMFSVPKLERG, -0.537 ± 1.1. SWCHFVCLYPKHVFSVVSST displayed an amyloid nucleation score of 0.562 ± 1.2. In the case of LPGFYDRKICKSLSMIYRLS, the amyloid nucleation score is -0.405 ± 1.7. As for RNFPWQGFYSTCMMPHF, the figure is 0.986 ± 0.6; as for TNISQGRCKVECLPITSIYG, 0.247 ± 0.75. For DGEAPKGSTGWTCGRVNERD the value was -0.125 ± 0.6; for THDLRLMIGHDCDTVNGYSR, -0.725 ± 0.43. With ISYMHKLCLFSFYLDHKLTL, the amyloid nucleation score is -1.49 ± 1.4.

Consider SWCRGLEVQWLRCIFRM, for which the amyloid nucleation score is 0.274 ± 0.69. For the substance SQSTLCSHTP, the amyloid nucleation score is 1.13 ± 0.74. LMQLHCLARSLYPFPWSGPT returned an amyloid nucleation score of 1.96 ± 0.42. For APDRNDHDKLCCLCDNWSAL the value was 0.056 ± 1.4; for SYIDHYITKSDAVWRVSIEQ, -0.176 ± 0.35. With AMYHLGQSSLLYSRPFNSTK, the amyloid nucleation score was -0.595 ± 1.6.

Turning to LGVQFSGRLSVPVYFMWFTL, the amyloid nucleation score was 0.814 ± 0.61. For GSYWWDCFVNGGYEKFCTVP the value was 0.191 ± 0.68. In turn, GVGLDCFDRTWFWMFQTPQC had an amyloid nucleation score of 0.483 ± 0.35.

Substance DEWCVG yielded an amyloid nucleation score of 0.017 ± 0.82. For IFFFKEYCFMQVIRGFVCN the value was -0.265 ± 1.1; for SFRYFKLSCYFFFLVFAVFF, -1.02 ± 2.4. For EMSRGHLHTSFRVYIQMLGG the value was 4.54 ± 0.073; for GFYGCYSYVVLGGRVEP, -1.02 ± 2.4; for FVTIWWLYRTCIFLSTVRTT, 1.5 ± 0.26. Consider KRFTRTNILRMTCT, for which the amyloid nucleation score is 0.901 ± 0.48. As for MILRVVCHLNVCS, the figure is 6.921 ± 0.05. QNPRIKFIQHVPIYNEGTLP: the amyloid nucleation score came to 1.17 ± 0.43. As for HELMLQILGLAFLLGMFAGV, the figure is -0.747 ± 0.63; as for MWELRFVLCLMIHEFRRWHE, -0.056 ± 0.64. As for SFNKDRKIYTRPELRFMMFL, the figure is -0.707 ± 1.7; as for TSGSGINITL, “inactive”; as for GHSSRLRFT, -0.42 ± 0.48.

Regarding FHRWLDMWSLRRDFIGYGLG, the amyloid nucleation score was found to be 0.095 ± 0.77.

Turning to IFSSGYAKAFVHLVCSVAQL, the amyloid nucleation score is -0.458 ± 0.45. For FLRPTGHSGCQFGAMSSKKG the value was 0.464 ± 1.2; for GVQFQVVRMSCSVLSARLRL, 1.29 ± 0.18; for SGMYSMYQDKT, -0.716 ± 0.5. For LRLIV the value was 0.113 ± 0.89.
